Measured values published in PMC11900858.

Tests used:
FcγRIIB (mouse) = FcγRIIB (mouse) (UniProt P08101)
FcRn (mouse) = FcRn (mouse) (UniProt Q61559)
FcγRI (mouse) = FcγRI (mouse) (UniProt P26151)
FcγRIII (mouse) = FcγRIII (mouse) (UniProt P08508)
FcμR (mouse) = FcμR (mouse) (UniProt A1KXC4)
FcαμR (mouse) = FcαμR (mouse) (UniProt Q2TB54)
Sequence of UniProt Q2TB54 (Q2TB54 36-535): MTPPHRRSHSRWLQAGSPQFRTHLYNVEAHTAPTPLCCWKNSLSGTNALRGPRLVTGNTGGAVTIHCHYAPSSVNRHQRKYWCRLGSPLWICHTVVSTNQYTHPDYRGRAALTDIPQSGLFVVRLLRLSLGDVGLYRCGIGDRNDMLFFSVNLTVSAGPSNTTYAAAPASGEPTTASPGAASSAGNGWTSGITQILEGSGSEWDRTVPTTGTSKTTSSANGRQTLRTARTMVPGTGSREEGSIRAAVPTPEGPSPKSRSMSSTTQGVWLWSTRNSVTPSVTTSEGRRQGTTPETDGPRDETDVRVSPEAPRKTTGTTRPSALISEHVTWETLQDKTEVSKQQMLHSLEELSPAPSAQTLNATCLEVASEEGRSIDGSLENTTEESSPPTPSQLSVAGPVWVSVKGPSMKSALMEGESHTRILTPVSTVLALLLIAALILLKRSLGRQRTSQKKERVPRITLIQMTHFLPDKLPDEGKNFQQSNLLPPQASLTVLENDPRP

Sequence of UniProt Q61559 (Q61559 22-365): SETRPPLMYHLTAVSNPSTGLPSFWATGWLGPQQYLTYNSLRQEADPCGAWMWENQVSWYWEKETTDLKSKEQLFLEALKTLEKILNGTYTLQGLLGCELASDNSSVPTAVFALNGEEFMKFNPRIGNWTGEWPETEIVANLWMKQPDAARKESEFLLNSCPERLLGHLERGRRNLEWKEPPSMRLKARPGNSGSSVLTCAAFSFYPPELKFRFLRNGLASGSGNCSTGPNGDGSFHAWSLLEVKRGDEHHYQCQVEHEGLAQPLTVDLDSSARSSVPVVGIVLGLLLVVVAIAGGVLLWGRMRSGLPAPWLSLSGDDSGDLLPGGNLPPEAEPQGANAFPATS
Sequence of UniProt P08101 (P08101 30-330): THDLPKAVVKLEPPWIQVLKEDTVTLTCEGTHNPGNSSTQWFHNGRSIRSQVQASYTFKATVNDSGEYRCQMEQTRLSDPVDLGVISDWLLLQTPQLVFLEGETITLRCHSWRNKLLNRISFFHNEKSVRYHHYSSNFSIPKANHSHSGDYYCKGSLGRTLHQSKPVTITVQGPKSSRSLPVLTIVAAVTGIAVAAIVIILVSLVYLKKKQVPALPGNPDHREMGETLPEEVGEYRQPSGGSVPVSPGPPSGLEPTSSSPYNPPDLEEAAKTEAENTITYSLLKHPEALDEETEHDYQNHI
Sequence of UniProt P08508 (P08508 31-261): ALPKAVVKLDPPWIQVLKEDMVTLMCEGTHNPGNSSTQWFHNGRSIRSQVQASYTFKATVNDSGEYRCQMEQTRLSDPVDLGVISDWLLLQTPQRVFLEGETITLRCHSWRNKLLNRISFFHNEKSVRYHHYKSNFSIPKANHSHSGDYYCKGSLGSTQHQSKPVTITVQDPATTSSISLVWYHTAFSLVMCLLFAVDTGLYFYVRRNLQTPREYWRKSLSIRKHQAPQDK
Sequence of UniProt P26151 (P26151 25-404): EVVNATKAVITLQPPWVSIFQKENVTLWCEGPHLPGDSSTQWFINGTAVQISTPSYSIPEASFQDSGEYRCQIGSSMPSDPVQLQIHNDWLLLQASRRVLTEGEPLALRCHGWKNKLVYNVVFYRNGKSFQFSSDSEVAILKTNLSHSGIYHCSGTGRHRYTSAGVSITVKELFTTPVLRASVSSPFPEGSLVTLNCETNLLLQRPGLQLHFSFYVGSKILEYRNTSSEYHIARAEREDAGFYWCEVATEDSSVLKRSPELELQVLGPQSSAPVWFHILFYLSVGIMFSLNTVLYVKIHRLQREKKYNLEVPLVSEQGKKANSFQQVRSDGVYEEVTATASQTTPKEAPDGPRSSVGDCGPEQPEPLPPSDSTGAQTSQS
Sequence of UniProt A1KXC4 (A1KXC4 17-422): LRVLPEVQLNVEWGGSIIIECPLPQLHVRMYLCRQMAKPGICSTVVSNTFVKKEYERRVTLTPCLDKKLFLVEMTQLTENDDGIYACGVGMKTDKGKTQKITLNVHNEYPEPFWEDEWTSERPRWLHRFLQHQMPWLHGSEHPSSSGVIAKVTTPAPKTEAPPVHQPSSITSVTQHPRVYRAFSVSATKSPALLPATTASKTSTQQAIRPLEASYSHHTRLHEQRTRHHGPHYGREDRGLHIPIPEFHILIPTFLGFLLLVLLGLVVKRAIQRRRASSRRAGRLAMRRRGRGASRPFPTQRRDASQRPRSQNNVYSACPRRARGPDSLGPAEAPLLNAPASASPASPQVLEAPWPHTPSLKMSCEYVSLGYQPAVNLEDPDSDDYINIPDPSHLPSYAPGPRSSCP

T15 IgG3 (murine monoclonal anti-phosphocholine antibody of the T15 idiotype, IgG3 form)
< 5%: adhesion of T15 IgG3-opsonized Spn6A pneumococci to CHO cells stably expressing the receptor (MOI 1, T15 antibody 50 μg/ml); no notable increase; anti-capsule antibody control 85% binding (FcγRIIB (mouse)) | adhesion of T15 IgG3-opsonized Spn6A pneumococci to CHO cells stably expressing the receptor (MOI 1, T15 antibody 50 μg/ml); no notable increase; anti-capsule antibody control 85% binding (FcRn (mouse)) | adhesion of T15 IgG3-opsonized Spn6A pneumococci to CHO cells stably expressing the receptor (MOI 1, T15 antibody 50 μg/ml); no notable increase; anti-capsule antibody control 85% binding (FcγRI (mouse)) | adhesion of T15 IgG3-opsonized Spn6A pneumococci to CHO cells stably expressing the receptor (MOI 1, T15 antibody 50 μg/ml); no notable increase; anti-capsule antibody control 85% binding (FcγRIII (mouse)) | adhesion of T15 IgG3-opsonized Spn6A pneumococci to CHO cells stably expressing the receptor (MOI 1, T15 antibody 50 μg/ml); no notable increase; anti-capsule antibody control 85% binding (FcγRIV (mouse))

T15 IgM (murine monoclonal anti-phosphocholine antibody of the T15 idiotype, IgM form) (from UniProt P01592 22-159)
< 5%: adhesion of T15 IgM-opsonized Spn6A pneumococci to CHO cells stably expressing the receptor (MOI 1, T15 antibody 50 μg/ml); no notable increase; anti-capsule antibody control 85% binding (FcμR (mouse)) | adhesion of T15 IgM-opsonized Spn6A pneumococci to CHO cells stably expressing the receptor (MOI 1, T15 antibody 50 μg/ml); no notable increase; anti-capsule antibody control 85% binding (FcαμR (mouse))
